The values that follow are results of earlier work, collected in PMC2854253.

The target in this data set is cTnI147-163 (Homo sapiens). Nature of the data set: NMR titration.

What is called Kd is the concentration at which binding is half-saturated. Take cNTnC 1-89 (from UniProt P63316): the equilibrium dissociation constant (Kd) was 154 µM.
